Laboratory results as given in patent publication US7727960B2, “C5a receptor antagonists” (Jerini AG, priority 2003, dated 2010).
Starred links: 1 amine or outer side, 2 acyl side, 3 side chain; linkers in the order of their positions; H or OH if unused. Positions of bridges follow the written chain, without caps; N, C: chain ends. Non-standard residues stand in square brackets, D forms with d. No end group written: not given here. 2‑Acetamido‑1‑Methyl‑Glucuronyl = 2-Acetamido-1-methyl-glucuronyl N-terminal group; Ecp = His(tau-4-methoxybenzyl), COc1ccc(Cn2cnc(C[C@H](N[*:1])C(=O)[*:2])c2)cc1; Edn = Cys(CH2-CH2-4-pyridyl), O=C([C@H](CSCCc1ccncc1)N[*:1])[*:2]; Ebo = Cys(4-picolyl), O=C([C@H](CSCc1ccncc1)N[*:1])[*:2]; Ebu = Cys(3-picolyl), O=C([C@H](CSCc1cccnc1)N[*:1])[*:2]; Ecg = Cys(2-picolyl), O=C([C@H](CSCc1ccccn1)N[*:1])[*:2]; Phe(4-tBu) = CC(C)(C)c1ccc(C[C@H](N)C(=O)O)cc1; XX1 = 2-Amino-3-(4-piperidinyl)propionic acid; Ebd = Cys(Et), CCSC[C@H](N[*:1])C(=O)[*:2]; Phe(4-Me) = Cc1ccc(C[C@H](N)C(=O)O)cc1; 1Nal = N[C@@H](Cc1cccc2ccccc12)C(=O)O; 2Nal = N[C@@H](Cc1ccc2ccccc2c1)C(=O)O; XX2 = 4-guanidyl-piperidinyl-alanine; d(hLeu) = CC(C)CC[C@@H](N)C(=O)O; hCit = NC(=O)NCCCC[C@H](N)C(=O)O; 4Pal = N[C@@H](Cc1ccncc1)C(=O)O; 2Thi = N[C@@H](Cc1cccs1)C(=O)O; Cha = N[C@@H](CC1CCCCC1)C(=O)O; dCha = N[C@H](CC1CCCCC1)C(=O)O; dChg = N[C@@H](C(=O)O)C1CCCCC1; Phg = N[C@H](C(=O)O)c1ccccc1; hLeu = CC(C)CC[C@H](N)C(=O)O; Eag = 2-Propargylglycine; Nle = CCCC[C@H](N)C(=O)O; Orn = NCCC[C@H](N)C(=O)O; Dab = NCC[C@H](N)C(=O)O; Ecf = Cys(O-3-picolyl)

T1: human C5aR (CD88) (human, UniProt P21730 1-350)
T1 sequence (looked up): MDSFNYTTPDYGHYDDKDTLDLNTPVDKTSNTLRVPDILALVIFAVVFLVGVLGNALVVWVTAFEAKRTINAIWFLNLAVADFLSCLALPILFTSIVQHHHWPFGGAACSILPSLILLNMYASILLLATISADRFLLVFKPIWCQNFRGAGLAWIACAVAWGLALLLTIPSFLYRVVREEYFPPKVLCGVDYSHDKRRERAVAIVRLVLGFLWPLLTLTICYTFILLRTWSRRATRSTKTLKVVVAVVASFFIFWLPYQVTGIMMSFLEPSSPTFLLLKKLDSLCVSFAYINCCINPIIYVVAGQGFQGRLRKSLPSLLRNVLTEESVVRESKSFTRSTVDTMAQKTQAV

B1: Ac-Phe-Orn-Pro-cha-Trp-NH-CH2-CH2-Ph (peptide)
peptide: Ac-F[Orn]P[dCha]W-{NH‑CH2‑CH2‑Ph}
B2: Ac-Phe-[Orn-Pro-cha-Trp-Hci] (peptide)
peptide: Ac-F[Orn]P[dCha]W[hCit]
modifications: lactam (positions not given here); not fully specified (bridges); printed as Ac-Phe-[Orn-Pro-cha-Trp-Hci]
B3: Ac-Phe-Orn-Pro-cha-Trp-Phg-NH2 (peptide)
peptide: Ac-F[Orn]P[dCha]W[Phg]-NH2
B4: Ac-Phe-Orn-Pro-hch-Trp-Phe-OH (peptide)
peptide: Ac-F[Orn]P[dHch]WF-OH
B5: Ac-Phe-[Orn-Pro-cha-Trp-Pmf] (peptide)
peptide: Ac-F[Orn]P[dCha]W[Phe(4-Me)]
modifications: lactam (positions not given here); not fully specified (bridges); printed as Ac-Phe-[Orn-Pro-cha-Trp-Pmf]
B6: Ac-Phe-[Orn-Pro-cha-Trp-Edn] (peptide)
peptide: Ac-F[Orn]P[dCha]W[Edn]
modifications: lactam (positions not given here); not fully specified (bridges); printed as Ac-Phe-[Orn-Pro-cha-Trp-Edn]
B7: Ac-Phe-Orn-Pro-cha-Trp-1Ni-NH2 (peptide)
peptide: Ac-F[Orn]P[dCha]W[1Nal]-NH2
B8: Ac-Phe-[Orn-Pro-cha-Trp-XX2] (peptide)
peptide: Ac-F[Orn]P[dCha]W[XX2]
modifications: lactam (positions not given here); not fully specified (bridges); printed as Ac-Phe-[Orn-Pro-cha-Trp-XX2]
B9: Ac-Phe-[Orn-Pro-cha-Trp-Ebd] (peptide)
peptide: Ac-F[Orn]P[dCha]W[Ebd]
modifications: lactam (positions not given here); not fully specified (bridges); printed as Ac-Phe-[Orn-Pro-cha-Trp-Ebd]
B10: Ac-Phe-[Orn-Pro-cha-Trp-XX1] (peptide)
peptide: Ac-F[Orn]P[dCha]W[XX1]
modifications: lactam (positions not given here); not fully specified (bridges); printed as Ac-Phe-[Orn-Pro-cha-Trp-XX1]
B11: Ph2-CH-CH2-CO-Orn-Pro-cha-Trp-Phe-NH2 (peptide)
peptide: {Ph2‑CH‑CH2‑CO}-[Orn]P[dCha]WF-NH2
B12: Ac-Phe-[Orn-Pro-cha-Trp-Ebo] (peptide)
peptide: Ac-F[Orn]P[dCha]W[Ebo]
modifications: lactam (positions not given here); not fully specified (bridges); printed as Ac-Phe-[Orn-Pro-cha-Trp-Ebo]
B13: Ac-Phe-Orn-Pro-cha-Trp-2Ni-NH2 (peptide)
peptide: Ac-F[Orn]P[dCha]W[2Nal]-NH2
B14: Ac-Phe-[Orn-Pro-cha-Trp-Ecg] (peptide)
peptide: Ac-F[Orn]P[dCha]W[Ecg]
modifications: lactam (positions not given here); not fully specified (bridges); printed as Ac-Phe-[Orn-Pro-cha-Trp-Ecg]
B15: Ac-Phe-[Orn-Pro-cha-Trp-Eag] (peptide)
peptide: Ac-F[Orn]P[dCha]W[Eag]
modifications: lactam (positions not given here); not fully specified (bridges); printed as Ac-Phe-[Orn-Pro-cha-Trp-Eag]
B16: Ac-Phe-Orn-Pro-cha-Trp-Cha-NH2 (peptide)
peptide: Ac-F[Orn]P[dCha]W[Cha]-NH2
B17: Ac-Phe-Orn-Pro-cha-Trp-Eap-NH2 (peptide)
peptide: Ac-F[Orn]P[dCha]W[Phe(4-tBu)]-NH2
B18: Ac-Phe-[Orn-Pro-cha-Trp-Phe(4-Amidin)] (peptide)
peptide: Ac-F[Orn]P[dCha]W[Phe(4-Amidin)]
modifications: lactam (positions not given here); not fully specified (bridges); printed as Ac-Phe-[Orn-Pro-cha-Trp-Phe(4-Amidin)]
B19: Ac-Phe-[Orn-Pro-cha-Trp-Ppa] (peptide)
peptide: Ac-F[Orn]P[dCha]W[4Pal]
modifications: lactam (positions not given here); not fully specified (bridges); printed as Ac-Phe-[Orn-Pro-cha-Trp-Ppa]
B20: Ac-Phe-[Orn-Pro-cha-Trp-Ecf] (peptide)
peptide: Ac-F[Orn]P[dCha]W[Ecf]
modifications: lactam (positions not given here); not fully specified (bridges); printed as Ac-Phe-[Orn-Pro-cha-Trp-Ecf]
B21: Ac-Phe-[Orn-Pro-cha-Trp-Ebu] (peptide)
peptide: Ac-F[Orn]P[dCha]W[Ebu]
modifications: lactam (positions not given here); not fully specified (bridges); printed as Ac-Phe-[Orn-Pro-cha-Trp-Ebu]
B22: Ac-Phe-[Orn-Pro-cha-Trp-Met] (peptide)
peptide: Ac-F[Orn]P[dCha]WM
modifications: lactam (positions not given here); not fully specified (bridges); printed as Ac-Phe-[Orn-Pro-cha-Trp-Met]
B23: Ac-Phe-Orn-Pro-chg-Trp-Phe-OH (peptide)
peptide: Ac-F[Orn]P[dChg]WF-OH
B24: Ac-Phe-Orn-Ser-cha-Trp-Phe-OH (peptide)
peptide: Ac-F[Orn]S[dCha]WF-OH
SMILES: CC(=O)N[C@@H](Cc1ccccc1)C(=O)N[C@@H](CCCN)C(=O)N[C@@H](CO)C(=O)N[C@H](CC1CCCCC1)C(=O)N[C@@H](Cc1c[nH]c2ccccc12)C(=O)N[C@@H](Cc1ccccc1)C(=O)O
B25: Ac-Phe-[Orn-Pro-cha-Trp-Ecp] (peptide)
peptide: Ac-F[Orn]P[dCha]W[Ecp]
modifications: lactam (positions not given here); not fully specified (bridges); printed as Ac-Phe-[Orn-Pro-cha-Trp-Ecp]
B26: H-Phe-[Orn-Pro-hle-Trp-Nle] (peptide)
peptide: H-F[Orn]P[d(hLeu)]W[Nle]
modifications: lactam 2-C
B27: Ac-Phe-[Orn-Pro-cha-Trp-Arg(Me2)] (peptide)
peptide: FXPXWR
modifications: not fully specified; Ac-; Orn2; cha4 (D); Arg(Me2)6; cyclic [2-6]
B28: H-Phe-[Orn-Ser-cha-Trp-Phe] (peptide)
peptide: H-F[Orn]S[dCha]WF
modifications: lactam 2-C
SMILES: N[C@@H](Cc1ccccc1)C(=O)N[C@H]1CCCNC(=O)[C@H](Cc2ccccc2)NC(=O)[C@H](Cc2c[nH]c3ccccc23)NC(=O)[C@@H](CC2CCCCC2)NC(=O)[C@H](CO)NC1=O
B29: Ac-Phe-[Orn-Pro-cha-Trp-2Ni] (peptide)
peptide: Ac-F[Orn]P[dCha]W[2Nal]
modifications: lactam (positions not given here); not fully specified (bridges); printed as Ac-Phe-[Orn-Pro-cha-Trp-2Ni]
B30: Ac-Phe-[Orn-Pro-cha-Trp-Hle] (peptide)
peptide: Ac-F[Orn]P[dCha]W[hLeu]
modifications: lactam (positions not given here); not fully specified (bridges); printed as Ac-Phe-[Orn-Pro-cha-Trp-Hle]
B31: H-Phe-[Orn-Pro-cha-Trp-Nle] (peptide)
peptide: H-F[Orn]P[dCha]W[Nle]
modifications: lactam 2-C
B32: Ac-Phe-Orn-Pro-hch-Trp-Phe-OH (peptide)
peptide: Ac-F[Orn]P[dHch]WF-OH
B33: X-Phe-[Orn-Pro-cha-Trp-Nle]; X = 2-Acetamido-1-Methyl-Glucuronyl (peptide)
peptide: {2‑Acetamido‑1‑Methyl‑Glucuronyl}-F[Orn]P[dCha]W[Nle]
modifications: lactam 2-C
B34: Ac-Phe-Orn-Pro-cha-Trp-Thi-NH2 (peptide)
peptide: Ac-F[Orn]P[dCha]W[2Thi]-NH2
B35: Ac-Phe-[Orn-Pro-cha-Trp-Thi] (peptide)
peptide: Ac-F[Orn]P[dCha]W[2Thi]
modifications: lactam (positions not given here); not fully specified (bridges); printed as Ac-Phe-[Orn-Pro-cha-Trp-Thi]
B36: Ac-Phe-[Orn-Pro-cha-Trp-Dab] (peptide)
peptide: Ac-F[Orn]P[dCha]W[Dab]
modifications: lactam (positions not given here); not fully specified (bridges); printed as Ac-Phe-[Orn-Pro-cha-Trp-Dab]

What follows are binders tested against T1, human C5aR (CD88) (assay: cell-based or functional assay).

| IC50 activity group, enzyme release assay [nM] | Binder |
| --- | --- |
| ≤ 2000 | B1 |
| ≤ 2000 | B2 |
| ≤ 2000 | B3 |
| ≤ 200 | B4 |
| ≤ 50 | B5 |
| ≤ 2000 | B6 |
| ≤ 50 | B7 |
| > 2000 | B8 |
| ≤ 50 | B9 |
| > 2000 | B10 |
| ≤ 2000 | B11 |
| ≤ 2000 | B12 |
| ≤ 50 | B13 |
| ≤ 2000 | B14 |
| ≤ 10 | B15 |
| ≤ 200 | B16 |
| ≤ 2000 | B17 |
| ≤ 2000 | B18 |

| IC50 activity group, enzyme release assay [nM] | Binder |
| --- | --- |
| ≤ 200 | B19 |
| ≤ 2000 | B20 |
| ≤ 2000 | B21 |
| ≤ 200 | B22 |
| ≤ 2000 | B23 |
| ≤ 2000 | B24 |
| ≤ 2000 | B25 |
| ≤ 50 | B26 |
| ≤ 200 | B27 |
| ≤ 50 | B28 |
| ≤ 200 | B29 |
| ≤ 50 | B30 |
| ≤ 200 | B31 |
| ≤ 200 | B32 |
| ≤ 50 | B33 |
| ≤ 200 | B34 |
| ≤ 50 | B35 |
| ≤ 200 | B36 |
